21 sequences from a protein production outcome set (Wang et al. 2014) can be followed below.

A short description of the data set: label from the status in PepcDB records.

In the case of “MRPCCHWRPGPSGCHCCAGCGLAAEARRARERRGEAVIGLCGALAGEVRAGRQPGEALLHAAGDSGGLGDAQAAVLAAARFGGDVPGALADAAGQPGAEGLLGLGACWRVAVDRGAGLAAGLDRLEAALRAERDQRAELRAQLAGARSTAVMLAALPVLGLLLGTALGADPLHVVLHTGAGLACLLAGAVLEGAGLWWALRIVRGAEAA”, the protein production result is reported as “failed”.

Consider “MRPDLSRVPGVLGEIARKRASEVAPYPLPEPPSVPSFKEALLRPGLSVIAEVKRQSPSEGLIREVDPVEAALAYARGGARAVSVLTEPHRFGGSLLDLKRVREAVDLPLLRKDFVVDPFMLEEARAFGASAALLIVALLGELTGAYLEEARRLGLEALVEVHTERELEIALEAGAEVLGINNRDLATLHINLETAPRLGRLARKRGFGGVLVAESGYSRKEELKALEGLFDAVLIGTSLMRAPDLEAALRELVG”, for which the protein production entry is given as “not failed”.

With “MRPETLAVIQKQLTKIKAAQRNMTDNEVLRSMDEIMFCFENCYTEDETFTHIAQMFPSYVLKIVKSFFQISKAVTDEESREAYLTDAEECASVRRSQARDTSEEAKRSQDTLMGRLILIFMRPETREIIEMQLLPAMKLVKERLEREVEKQSMDEFMFCFENCYTEKETEMHVTRKFPSLKQSDVGIGFQTFIGLIDKESSREAYLKDAEDCANVRRIEARQGEASTSHKCEPNCNKH”, the protein production entry is “failed”.

On to “MRPLARLRGRRVVPQRSAGELDAMAAAGAVVAAALRAIRAAAAPGTSSLSLDEIAESVIRESGATPSFLGYHGYPASICASINDRVVHGIPSTAEVLAPGDLVSIDCGAVLDGWHGDAAITFGVGALSDADEALSEATRESLQAGIAAMVVGNRLTDVAHAIETGTRAAELRYGRSFGIVAGYGGHGIGRQMHMDPFLPNEGAPGRGPLLAAGSVLAIEPMLTLGTTKTVVLDDKWTVTTADGSRAAHWEHTVAVTDDGPRILTLG”, for which the protein production entry is reported as “failed”.

Turning to “MRPVDEQWIEILRIQALCARYCLTIDTQDGEGWAGCFTEDGAFEFDGWVIRGRPALREYADAHARVVRGRHLTTDLLYEVDGDVATGRSASVVTLATAAGYKILGSGEYQDRLIKQDGQWRIAYRRLRNDRLVSDPSVAVNVADADVAAVVGHLLAAARRLGTQMSDT”, the protein production entry was “not failed”.

Take “MRQPFQVLVIPFIKTEANYQFGVLHRTDADVWQFVAGGGEDEEAISETAKRESIEELNLDVDVKMYSLDSHASIPNFHFSFNKPYVVPEYCFAIDLTSCSYQVTLSLEHSELRWVSYESAIQLLEWDSNKTALYELNERLKNNDMKAM”: the protein production result was “not failed”.

With “MRQRDDSKRIAFLEATVREVADHGFSATSVGKIAKAAGLSPATLYIYYEDKEQLLLATFYYVSDQVIDAALDSFSRGKDLREGLRRQWHTLFRIGLERPELFRYHETFTHSAWMTPEIQARNESRAANLLNAVDQGKQSGLIKPVPFPLLETFMFRPIYHLVQRCLQGSFEGTDEHIELAFNMAWDAVADRRNT”, the protein production result is “not failed”.

Take “MRQSYRTPLLASLLVLICAVVLWNAYEWFQGRYLRAFSEHTAMFSGDPLQLPAELAGPGAIRLVHFWDPACPCNVGNQQHLAELIEAYSPRGVEFYAVQKPGSHGQLPATLSRLKHLDSLPGAEQIPASPAVAIWDRNGKLAYFGPYSEGLTCNSSNSFIEPILQALEDNRPVSATHTLAIGCYCPWPA”: the protein production result is listed as “failed”.

For “MRQTQVKSPYCHQSNYKLAIAIITVITGTVVTGATVTTGTAIMNGVKTAGGIMIMATIVAGISVKRMNVAIVKAGAIVTIIVEKAADMDTAIKHIRQWSTMPDATLARLIRPTNQLFNA”, the protein production entry is “failed”.

With “MRQYNPPAMNIPQEVARRRTFAIISHPDAGKTTLTEKLLLFAGAIQIAGSVKARKASRHASSDWMEIEKQRGISVASSVMQMEYRDCVINLLDTPGHQDFSEDTYRVLTAVDAALMVIDAANGVEPQTIRLLQVCRARNTPIITFINKLDREVREPLELLSEIEGHLGMDTVPFSWPVGMGKAFGGVFDIRRNRMRIFRAGQERRGEDDEFIDGLDNPEIPRRFGAAFAQASGEIELINEAAPAFDREAFLAGKQTPVFFGSAINNFGVQEVLDALVDQAPAPGPRQALEREVRPDEPKFTGVVFKVQANMDPAHRDRVAFVRVSSGRFERGMRLKVARTGKEMRPNNVVSFLSQRRELLDEAYAGDVIGIPNHGVLQLGDVLTEGESLRFTGLPFFAPELFQAVEVKDPLRTKQLRVGLTQLGEEGAIQVFRPEAAGGALLLGAVGQLQFEVVAHRLKTEYGVDARMMPSRYTSARWITSDDPRALRKFMDANAAHIAYDVVDAAAFLITSPAQLRVAEDLYPNVKFHALREHGGKVFGDKA”, the protein production result is “failed”.

As to “MRRCCGDLAASRGGCEPASRNLTRTRLTFAALGRINRPAEHDREDAMTRQEARDHEPRDQDAALSRRTLVRGLALGAAATMAGPALAQTGPAAPPTTITTPPRDFGPNGAPTTYFWDPDIIAVDPSFDDLAQPNTAIKRLYTGVLWAEGPAWSAQGRYLLWSDIPNNRQMRWSEDDGRISVFRSPSNNSNGNSFDFQGRQLSCEHLTRRVTRYEHDGTATVLCDNYNGKKLNSPNDVVAHPDGSYWFTDPPYGGQLYEGEPDAAGGPSNSGGKLNPRIGQPAGFTPGKRELPTNCYRIDPSGRVDLVVTEEQVPDPNGLCFSPDFKKLYVVSTGKGPGDSGPGGKGEIFVFDVGADNKLSNQKRFSDCTIDGVKCGPDGVRCDVNGNVWASSNAGRAVGYSGVTVWSPEGKLLGRIRLPEVCGNICFGGPKRNRLFMAASQSLYAVFTATQGAGPGLEHHHHHH”, the protein production entry was “not failed”.

As for “MRRGDIGSCDRVDPSGKTLAGCDAGGDRGLGHGAFSSRAMWASDRTAARLLRPTLRQINTRLAGPPDPSISASMERAADMQTLLREIRNTPLLWMLVFVPIVLLAEAAAPHSHTLLFVLAVLAIVPLAALLSHATEAVAAKTGDAVGGLLNATLGNLTELIIAITALRAGQYMLVKASIAGAIVTNAVFMLGACLLLGGLRYHVQEYNRAGARLSSGLLLMATVALLAPSAVADLEHLPQGGGILNKLSVGISVLLIIAYALGLLFSLGTHKELFASADHGDDKEAHWPIGIAVGTLLVVTVLVALVSEIFVESVQKAAETFGMSPAFVGFIIVSLVGAAAEFAVAFGAARKDRLDMVVSIALGSASQIALFVAPALVLLSYVVGPTPMNLQFWPGAVTMVMIATVTSAFITASGRSAWFVGALMIFIYAVFALTLYVVPPAGEG”, the protein production entry is “failed”.

With “MRRITVGPFNRVEGDLEVRLDIDDGVVVSAEVTAPLYRGFEQILEGRPSLDALTLAPRICGICSVSQSMAAVAALRAVDGLHPAPNGLHAANIAHAAENAADHLTHFYVFFMPDFARDSYAAWPWHPAVAERFTATRGTAAREVLPARARLLEIMGLIAGKWPHSLAFQPGGTTRAIGLGERVRLLSIIADFRGFLESIVFGDDLEAVLALRSAAALESWRDGRIGDFARFLAIADDLALDKLGRGATSLMSFGAYQGLEAPLFAAGLYDPATSTPRVLDIDAITEDVSHAWMRDTAAEPALAQTLPDADRPGGYSWCKAPRLDSRPIEVGALARQAVDGDALIRDLVRRHGPNVRTRVIARLLETARLALAMDRWARQIALDAPFLDAAARVGEGAGIGLVEAARGSLGHWIELSGDRIRRYQIIAPTTWNFSPRDADGVAGPLEQALVGTPVGAEGAASVAVQHVVRSFDPCMVCTAH”, the protein production result is “failed”.

Turning to “MRRLFPEESEALLFKTLNYIPIPILLSEALAVEGRRPSTHRIHRFMNHAFVEQLGYNLSEIPNIAAWFDTVYPDPIIREQAMLEWDSVVYESEQQGLSTAGFKTFIRCGTGQFRWFLINAQLTTENQSNLNIVTMRDVHQLQLLLEENERQSKTDLLTGLANRRQIEDVLAAAMAKSDRTQSSLCVVMCDIDFFKNINDNFGHLCGDDVLKIVASQLQHSAQAATCIARWGGEEFLIVLEHVVPESAGVLCEQLRGLIAATDYQSYGQHMQLTMSFGCVQYQANESLQSLLCRVDKALYQAKNGGRNQVVMD”, the protein production entry is “failed”.

For “MRRLNLILLLSAVTAALAFVISCKETNAERLEKMCGEWVSTGGKPPFTLWEEDGRYRVTVMHRNHTGGSEAETYLVRETEGVLFIETGFAVMMDYDREKDRIRLSPGGEYRRKSDGTLKQ”, the protein production entry is “failed”.

Take “MRRLNRFKAPDEKVNTLFQVYKTISFWKVVKNTVVVEFGRFFPWMGGKRNIYRACLGMKIGKKTAIAYKVMPDLFFPEKITIGENSIIGYHTTILTHEYLLSEYHVGEVVIGKNVMVGANVTILPGIEIGDGAIVAAGAVVSKDVPPESFAYGNPLVIKEKAALEHHHHHH”: the protein production result is reported as “not failed”.

Take “MRRPPVVGVLLAAGRGSRFDPDGTVNKLLAALPDGTPVAVQAARHLRAVLDDVVAVVPAAGTHGAEVERLAALLAEAGCEVLRCARAARGMGASLAAGVAARPHAGGWIIALADMPWLAPHTIARVAQALDARHCVAPFHQGRRGHPIGFGADYFAGLAALDGDEGARALIDPARLIRLDVGDAGTLRDVDTPADVCGA”: the protein production result is “failed”.

For “MRRRGKGGGSVFYHEGKGKWVAQLTWIDPATGRKVKREKHCETRKEAERALADMVVAQAKGLLTDPSRLTTRDFALDYLKRLEREGLRPNSIRLAQEELAHALPSLKDPKAHDPLGRMRLQEVKPVHVRAAVDRVAEAGYAPRTVGRVLMRLKALFREALRLELVARNPAEAVRLRLPKGEKTARALEPQEVARLLETAEASRSKDMALLLRLMLETGLRRGEALALQWRDIDLEAGELTVWRSWTKARGKGAFSEPKTPTAKRKVPLPRGLLLRLKARREELLERLTPEEVDGLFLVGGVKPVDPDAFNHYLRRLAERAGLGRVRVHDLRHTWATLALSRGVPLEVVSERLGHASPTITLNVYRHLLEEERRGWVLDLEELLYPAPRAQA”, the protein production result is reported as “failed”.

As for “MRRSLRHGFTALLTTWALLLPTVAVAQEPIDNVPEVTADNAETLEDIIDDALTPTTRLEAPNTDLCPYKESPSPARSTSEVVAPGAQTPALVPVPSVPAGGEKLATCGVITPNGFELPEDSDETITASAWMVFDIDSGEIIAAKDPHGRYRPASIIKVLLSLVAIDELNPTTVVTGTMEAANIEGSRVGVGEGGQYTVDQLLHGLLLASGNDAAYLLAQELGGDQATLEKVNALAKELGTQDTFVATYSGLDAPGMSTSAYDMSLIYQHAWQNPVFESIISTDHIDFPGWGDNEGFQVWNDNALFMNDPDGIGGKTGYTDDANHTFVGGLDRGGRRLAAVLLDSTVSDIRPWEQARLLIDASLPITPGSGVGQLGSGSANDVAPATPELPEPTDNLTSGEGGSQNTLLKLVVPIGIIVLLLIAALAWTFRSPKKKN”, the protein production result is reported as “failed”.

For “MRRVFGAKKNTEPPPSIQDASDRINKRGDSVEDKIKKLDVELCKYKEQLKKTRPGPAQEAVKARAMRVLKQKKMYEGQRDMLYNQTFNLDQVSFAAEGLKDAQQTMTALKSANKELKGMMKTVKIQDIDNLQDEMMDLMDVSSEIQESLGRSYNIPDGLDEDDLMGELDALEADMGNETEADGMPSYLQPDTETDYDSELNLPAAPTGHNGAPHGRAQVNF”, the protein production result was “failed”.

With “MRRVISIFRKLSAVYCHTGNFAEGIRVCKYALGRFTEMEDKYKCIFTFNMSLYYNYLGEYGKALNAITGFESVIKATYEDRYYKVLLLKADCYYGAERYAESLSIYNKLISITLKDDFNNLCVYYNNMTQVYLRMGKRDMAVNCINTVINNLHNISDDFEALPQIYAELGKSYLMMADNDKSIKYLTIALKLSKDFKYYSVTKDILNELSKIKGNSNKLKLKDEFIILTENMGRSYDSLNHSLVFNIIQYYTRLGDVASINELCEYCKERKVG”, the protein production entry is listed as “failed”.
